The source of these data is the RNAGym collection of RNA variant scans (doi:10.1073/pnas.2313332121).

The chains are these.
B1: TPR t1 (parent)
chain: GACCAAUCUGCCCUCAGAGCUCGAGAACAUCUUCGGAUGCAGAGGAGGCAGGCUUCGGUGGCGCGAUAGCGCCAACGUCCUCAACCUCCAAUGCAUCCCACCACAUGAUGAUGCCUGAAGAGCCUUGGUUUUUUG

The variants in this data set derive from B1. In words: polymerase ribozyme fitness, log enrichment relative to wild type (log ratio); higher = more active; in vitro selection for triplet polymerase activity. In short, it runs like this:
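A heterodimeric triplet polymerase ribozyme had each of its subunits mutagenized by PCR into a library, which was transcribed. One round of in vitro selection, done in triplicate, annealed each library with a biotinylated primer, its partner subunit and triplets, then incubated it frozen at −7 °C before gel excision of extended constructs, streptavidin-bead capture and RT-PCR. Fitness is the logarithm of genotype enrichment relative to wild-type enrichment, based on Illumina sequencing of inputs and outputs and inverse-variance-weighted replicate averages. A base-2 logarithm is used, and genotypes were kept only with ≥10 input reads and ≥1 read per output.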
Regarding A29G A41G C56A G61A C124A, the “polymerase ribozyme fitness (log ratio)” value was -1.77. As for U30C G58C C85G, the “polymerase ribozyme fitness (log ratio)” value is -3.06. The result for A29U A37U G44C C72G C114U reads -4.21.

Take A29C C56U U81A: the “polymerase ribozyme fitness (log ratio)” value was -2.74. As for A29U C97A A121U, the “polymerase ribozyme fitness (log ratio)” value is -4.33. In the case of A29C G47U G60C C97U, the “polymerase ribozyme fitness (log ratio)” value is -6. Take A29G C40G A74U U81A U92G C115A: the “polymerase ribozyme fitness (log ratio)” value is -3.87. Regarding A29U C70G U125G, the “polymerase ribozyme fitness (log ratio)” value was -3.65. Then A29U C34U A46U U87G, with -5.9. Then U30A C88U, with -5.1; and C28U U112G, with -1.97. The result for C28U U112C reads 0.129; that for A29G U55C G63U U87A G113C, -4.13. As for C31A A118U, the “polymerase ribozyme fitness (log ratio)” value was -5.02.

Consider A29G A37C C102A, for which the “polymerase ribozyme fitness (log ratio)” value is -4.8. Then A29U G45U A74G, with -3.27. For U30C C70U C82G, the “polymerase ribozyme fitness (log ratio)” value is -6.42. Then C31G G61U, with -6.02; and A29U U96G U130C, with -2.74. For the variant A29C G63C U78A U92A G120C, the “polymerase ribozyme fitness (log ratio)” value was -5.6. On to A29G G71U A83U, for which the “polymerase ribozyme fitness (log ratio)” value is -1.51. Then U30C C64G C99G C123G, with -7.65. The result for A29U C34U G47U C53U reads -6.51; that for U30C G60A, -1.98.

On to C28U U129G, for which the “polymerase ribozyme fitness (log ratio)” value was -2.18. For the variant A29G G36A C53U U55C G69U G127C, the “polymerase ribozyme fitness (log ratio)” value was -4.42.

A29U G47C C85U C123U: the “polymerase ribozyme fitness (log ratio)” value was -4.09.

For A29C C56G, the “polymerase ribozyme fitness (log ratio)” value is -3.25. The result for A29C G45A C115U reads -4.57. Then A29U G58A G71C U112A, with -1.32; and A29U G47C A119G, with -2.66; and A29C U55C C115A U133A, with -2.81. The result for A29U C124U U131A reads -0.63; that for A29C G52U G63C, -2.49; that for A29C U33C U55A C86A C124A, -6.12. Regarding A29C U55G G60U A75U, the “polymerase ribozyme fitness (log ratio)” value was -2.08. As to U30G A43U G45U G47A C49A U106A A119G, the “polymerase ribozyme fitness (log ratio)” value is -4.24. Then U30C A41G U78A A91G A108G, with -2.61. The result for C31G G42C A111U reads -6.49; that for A29C G39C, -3.97; that for A29G G44U A50U G69U, -2.04. Then C31G G122A, with -5.66; and A29C C49A G77A U78A, with -3.15; and C31G A41C G58C C62U, with -8.8.

Consider A29U A37U G60U C89U, for which the “polymerase ribozyme fitness (log ratio)” value was -3.5.

With A29U A46G G60U A91C, the “polymerase ribozyme fitness (log ratio)” value was -2.59. The result for A29G G69A C86A U112A C123G reads -3.48.

Consider A29U G127U, for which the “polymerase ribozyme fitness (log ratio)” value was -3.66. Then A29U G127C, with -3.29. Then U30A, with -4.65; and U30G, with -5.83; and U30C, with -1.66.

With U30C C49U G63C G77A, the “polymerase ribozyme fitness (log ratio)” value was -6.71.

For C31G C80G A100U C101G A103U G120C, the “polymerase ribozyme fitness (log ratio)” value was -7.23. A29U C49A C64U C82A C97G A121G U133C: the “polymerase ribozyme fitness (log ratio)” value is -3.41. Consider A29G C104A G117C U131C, for which the “polymerase ribozyme fitness (log ratio)” value is -6. The result for A29U G63U U78C reads -4.96; that for A29G U59G G60U U130G, -2.01. With A29U C94U A121U, the “polymerase ribozyme fitness (log ratio)” value was -0.384.

Consider C31G C73A, for which the “polymerase ribozyme fitness (log ratio)” value was -6.15.

Turning to A29C G69U G77U, the “polymerase ribozyme fitness (log ratio)” value is -2.24.

Regarding A29U A84G U87G, the “polymerase ribozyme fitness (log ratio)” value is -2.37.

As for A29G C79U, the “polymerase ribozyme fitness (log ratio)” value is -1.06. Then A29C G93A, with -3.03; and A29U A118U, with -1.3; and A29U G39U G61A G122A, with -3.23. Consider A29C G47A G69U, for which the “polymerase ribozyme fitness (log ratio)” value was -1.84. The result for A29C U54C A84U G120C reads -2.27; that for A29U G45C U55G C64U G93U U109A G117U, -5.42; that for A29G C53A A90C C101U G113C, -2.81.

Take A29G C49U G61A C85U: the “polymerase ribozyme fitness (log ratio)” value was -1.74.

With U30C C72U U87A U112A, the “polymerase ribozyme fitness (log ratio)” value was -2.41.

For the variant U30A C56A C82A U87A C114G G122A, the “polymerase ribozyme fitness (log ratio)” value was -6.34. Then A29C A74U, with -2.93; and A29G C72U, with -1.98. Then A29G C72G, with -1.98. The result for U30C G44A C53G reads -5.41. Regarding A29G C40A C97U G113C, the “polymerase ribozyme fitness (log ratio)” value is -4.13.

As to A29G G63C, the “polymerase ribozyme fitness (log ratio)” value was -1.45.

In the case of A29C U55C C72U C115A U133A, the “polymerase ribozyme fitness (log ratio)” value is -2.23. The result for A29G A91C reads -1.57; that for A29U G52A, -1.8; that for C31G C72G, -6.27.
